This is an account of results in article PMC4541418.

This data set deals with Fur (HpFur) (Helicobacter pylori (G27?)). Kind of data set: DNase I footprinting. The settings on record: pOPI and pOPII; 150 uM dipyridyl, 1 mM DTT then 5 mM H2O2, versus no H2O2; 10 mM Tris-Cl pH 7.85, 50 mM NaCl, 10 mM KCl, 0.02% Igepal CA-630, 10% glycerol, 0.1 mM DTT (plus 1 or 5 mM DTT or 5 mM H2O2); 150 uM (NH4)2Fe(SO4)2 or ….

With “Ppfr probe (apo-operators pOPI, pOPII, pOPIII; holo-operator pOPIV)”, the binding signal (fold higher Fur needed) was 5.
